What all share (test): SPOT array
Assay [1] has as its target T1, Boi1 SH3 (BOI1_YEAST), P38041.
T1 chain: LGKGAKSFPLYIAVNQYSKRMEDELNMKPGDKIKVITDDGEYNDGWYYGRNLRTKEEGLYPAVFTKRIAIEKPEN

The target in assay [2] is T2, Rvs167 SH3 (RV167_YEAST), P39743.
T2 chain: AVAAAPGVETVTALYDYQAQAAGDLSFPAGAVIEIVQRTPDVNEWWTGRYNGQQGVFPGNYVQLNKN

The target in assay [3] is T3, Yfr024 SH3 (LSB3_YEAST), P43603.
T3 chain: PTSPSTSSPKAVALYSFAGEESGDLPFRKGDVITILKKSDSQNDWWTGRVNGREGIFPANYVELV

Assay [4] addresses T4, Yhr016c SH3 (YSC84_YEAST), P32793.
T4 chain: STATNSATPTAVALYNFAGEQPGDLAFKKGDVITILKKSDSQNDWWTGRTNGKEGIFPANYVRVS

Assay [5] addresses T5, Boi2 SH3 (BOI2_YEAST), P39969.
T5 chain: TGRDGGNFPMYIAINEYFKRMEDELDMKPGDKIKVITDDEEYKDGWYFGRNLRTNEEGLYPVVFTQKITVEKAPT

B1: YDR211W 95-108 (peptide)
chain: WNLPWSPFKITTIM
With B1, the normalised SPOT signal, Boehringer light units (BLU); mean over the file's lines of this peptide in assay [1] came out at 143; in assay [2] it was 870; in assay [3], 6480; in assay [4] it was 1040; in assay [5], 2670.

B2: YLR213C 295-308 (peptide)
chain: YRYPQTPMRLEIAV
Consider B2, for which the normalised SPOT signal, Boehringer light units (BLU); mean over the file's lines of this peptide worked out at 208 in assay [1]; 90.7 in assay [2]; 1060 in assay [3]; 365 in assay [4]; 146 in assay [5].

B3: YDR001C 36-49 (peptide)
chain: YGPPTDPRKQKQAK
In the case of B3, the normalised SPOT signal, Boehringer light units (BLU); mean over the file's lines of this peptide in assay [1] was 156; in assay [2] it was 63.3; in assay [3] it was 172; in assay [4], 209; in assay [5], 38.1.

B4: YDR415C 17-30 (peptide)
chain: WSYPYEPLRVLQVG
Consider B4, for which the normalised SPOT signal, Boehringer light units (BLU); mean over the file's lines of this peptide in assay [1] turned out to be 326; in assay [2], 1090; in assay [3], 2320; in assay [4], 802; in assay [5], 3020.

B5: YER114C 448-461 (peptide)
chain: YPSPAQPPKSPLLN
On to B5, for which the normalised SPOT signal, Boehringer light units (BLU); mean over the file's lines of this peptide in assay [1] was found to be 92.5; in assay [2] it was 18.1; in assay [3], 526; in assay [4], 22.5; in assay [5], 36.2.

B6: YNL005C 96-109 (peptide)
chain: YLDPFHPKRKFIGV
As for B6, the normalised SPOT signal, Boehringer light units (BLU); mean over the file's lines of this peptide was 178 in assay [1]; 57 in assay [2]; 88.7 in assay [3]; 34.3 in assay [4]; 58.3 in assay [5].

B7: YKL178C 366-379 (peptide)
chain: YRIPDDPRKSQNKS
With B7, the normalised SPOT signal, Boehringer light units (BLU); mean over the file's lines of this peptide worked out at 95.9 in assay [1]; 21.3 in assay [2]; 351 in assay [3]; 80.5 in assay [4]; 71.9 in assay [5].

B8: YDR390C 151-164 (peptide)
chain: YMQPIIPGKTESFE
As for B8, the normalised SPOT signal, Boehringer light units (BLU); mean over the file's lines of this peptide in assay [1] was 62.4; in assay [2], 498; in assay [3], 596; in assay [4], 272; in assay [5], 259.

B9: YNR006W 578-591 (peptide)
chain: YDFPTVPARKFVQP
Regarding B9, the normalised SPOT signal, Boehringer light units (BLU); mean over the file's lines of this peptide amounted to 1480 in assay [1]; 254 in assay [2]; 804 in assay [3]; 258 in assay [4]; 8.3 in assay [5].

B10: YEL040W 243-256 (peptide)
chain: YQYPQTPSKVDISI
Regarding B10, the normalised SPOT signal, Boehringer light units (BLU); mean over the file's lines of this peptide in assay [1] is 36.3; in assay [2] it was 74.2; in assay [3], 141; in assay [4], 73.9; in assay [5], 36.3.

B11: YDR420W 1404-1417 (peptide)
chain: YSNPQTPLRSLAGL
Regarding B11, the normalised SPOT signal, Boehringer light units (BLU); mean over the file's lines of this peptide in assay [1] was found to be 80.5; in assay [2], 260; in assay [3], 2680; in assay [4] it was 1600; in assay [5], 104.

B12: YHR072W 222-235 (peptide)
chain: YSLPMHPGRWWVHT
With B12, the normalised SPOT signal, Boehringer light units (BLU); mean over the file's lines of this peptide in assay [1] came out at 79.5; in assay [2], 78.1; in assay [3] it was 712; in assay [4] it was 308; in assay [5] it was 158.

B13: YGR166W 507-520 (peptide)
chain: YKIPVVPPRETYFA
As to B13, the normalised SPOT signal, Boehringer light units (BLU); mean over the file's lines of this peptide in assay [1] turned out to be 137; in assay [2], 385; in assay [3], 3320; in assay [4], 1750; in assay [5] it was 26.2.

B14: YGR293C 125-138 (peptide)
chain: YILPKNPFRVPSEM
Regarding B14, the normalised SPOT signal, Boehringer light units (BLU); mean over the file's lines of this peptide in assay [1] was found to be 8450; in assay [2], 198; in assay [3] it was 808; in assay [4], 124; in assay [5] it was 384.

B15: YFR048W 228-241 (peptide)
chain: YTLPLLPGKGGFRI
Consider B15, for which the normalised SPOT signal, Boehringer light units (BLU); mean over the file's lines of this peptide in assay [1] is 107; in assay [2] it was 28.3; in assay [3] it was 474; in assay [4], 96.3; in assay [5], 20.3.
